The values below come from publication PMC7545093.

The target in this experiment is Vibrio cholerae type IVa pilus secretin PilQ, N-terminally deca-histidine tagged (Vibrio cholerae). The experiment can be described thus: cryo-EM structure.

Broadly, the stoichiometry N is a count of units in the complex or per binding partner. Turning to “Vibrio cholerae type IVa pilus secretin PilQ, N-terminally deca-histidine tagged (natural protein)”, the stoichiometry N amounted to 14.
